Reference: doi:10.1101/2025.06.27.661840 (bioRxiv, 2025)
Read-outs that look alike come from different tables or passages of the source.

B1: major capsid protein (MCP; ORF40) (natural protein, UniProt P09245 1-1396, looked up)
chain: MTTVSCPANVITTTESDRIAGLFNIPAGIIPTGNVLSTIEVCAHRCIFDFFKQIRSDDNSLYSAQFDILLGTYCNTLNFVRFLELGLSVACICTKFPELAYVRDGVIQFEVQQPMIARDGPHPVDQPVHNYMVKRIHKRSLSAAFAIASEALSLLSNTYVDGTEIDSSLRIRAIQQMARNLRTVLDSFERGTADQLLGVLLEKAPPLSLLSPINKFQPEGHLNRVARAALLSDLKRRVCADMFFMTRHAREPRLISAYLSDMVSCTQPSVMVSRITHTNTRGRQVDGVLVTTATLKRQLLQGILQIDDTAADVPVTYGEMVLQGTNLVTALVMGKAVRGMDDVARHLLDITDPNTLNIPSIPPQSNSDSTTAGLPVNARVPADLVIVGDKLVFLEALERRVYQATRVAYPLIGNIDITFIMPMGVFQANSMDRYTRHAGDFSTVSEQDPRQFPPQGIFFYNKDGILTQLTLRDAMGTICHSSLLDVEATLVALRQQHLDRQCYFGVYVAEGTEDTLDVQMGRFMETWADMMPHHPHWVNEHLTILQFIAPSNPRLRFELNPAFDFFVAPGDVDLPGPQRPPEAMPTVNATLRIINGNIPVPLCPISFRDCRGTQLGLGRHTMTPATIKAVKDTFEDRAYPTIFYMLEAVIHGNERNFCALLRLLTQCIRGYWEQSHRVAFVNNFHMLMYITTYLGNGELPEVCINIYRDLLQHVRALRQTITDFTIQGEGHNGETSEALNNILTDDTFIAPILWDCDALIYRDEAARDRLPAIRVSGRNGYQALHFVDMAGHNFQRRDNVLIHGRPVRGDTGQGIPITPHHDREWGILSKIYYYIVIPAFSRGSCCTMGVRYDRLYPALQAVIVPEIPADEEAPTTPEDPRHPLHAHQLVPNSLNVYFHNAHLTVDGDALLTLQELMGDMAERTTAILVSSAPDAGAATATTRNMRIYDGALYHGLIMMAYQAYDETIATGTFFYPVPVNPLFACPEHLASLRGMTNARRVLAKMVPPIPPFLGANHHATIRQPVAYHVTHSKSDFNTLTYSLLGGYFKFTPISLTHQLRTGFHPGIAFTVVRQDRFATEQLLYAERASESYFVGQIQVHHHDAIGGVNFTLTQPRAHVDLGVGYTAVCATAALRCPLTDMGNTAQNLFFSRGGVPMLHDNVTESLRRITASGGRLNPTEPLPIFGGLRPATSAGIARGQASVCEFVAMPVSTDLQYFRTACNPRGRASGMLYMGDRDADIEAIMFDHTQSDVAYTDRATLNPWASQKHSYGDRLYNGTYNLTGASPIYSPCFKFFTPAEVNTNCNTLDRLLMEAKAVASQSSTDTEYQFKRPPGSTEMTQDPCGLFQEAYPPLCSSDAAMLRTAHAGETGADEVHLAQYLIRDASPLRGCLPLPR
B2: VZV portal protein (pORF54) (natural protein, UniProt P09302 1-769, looked up)
chain: MAEITSLFNNSSGSEEKRIASSVSIDQGLNGSNPNDQYKNMFDIYWNEYAPDIGFCTFPEEDGWMLIHPTTQSMLFRKILAGDFGYTDGQGIYSAVRSTETVIRQVQATVLMNALDATRYEDLAADWEHHIQQCNLHAGALAERYGLCGESEAVRLAHQVFETWRQTLQSSLLEFLRGITGCLYTSGLNGRVGFAKYVDWIACVGIVPVVRKVRSEQNGTPAPLNTYMGQAAELSQMLKVADATLARGAAVVTSLVECMQNVAIMDYDRTRLYYNYNRRLIMAKDDVTGMKGECLVVWPPVVCGEGVVFDSPLQRLSGEVLACYALREHARVCQVLNTAPLRVLIGRRNEDDRSHSTRAVDRIMGENDTTRAGSAASRLVKLIVNLKNMRHVGDITETVRSYLEETGNHILEGSGSVDTSQPGFGKANQSFNGGAMSGTTNVQSAFKTSVVNSINGMLEGYVNNLFKTIEGLKDVNSDLTERLQFKEGELKRLREERVKIKPSKGSHITMAEETRIADLNHEVIDLTGIIGDDAYIANSFQSRYIPPYGDDIKRLSELWKQELVRCFKLHRVNNNQGQEISVSYSNASISLLVAPYFSFILRATRLGFLVTQSEVHRSEEELCQAIFKKARTESYLSQIRILYEMQVRAEVIKRGPRRTPSPSWGLPDPTEDDERIPEPNKINNQYMHVGYKNLSHFMKGHPPERLRVHKVNAADSTLLDKIRANRRRGDGRWDVRNKYTQHFRLQRNDRQLTNTSRRGVGCERRDRRS
B3: capsid vertex-specific component 2 (CVC2; ORF34) (natural protein, UniProt P09287 1-579, looked up)
chain: MTARYGFGSISFPNKCGIFLSTTKNFIAPNFPIHYWTAPAFELRGRMNPDLEKNTLTLKNAAAVAALDNLRGETITLPTEIDRRLKPLEEQLTRMAKVLDSLETAAAEAEEADAQSEECTRTEIIRNESIHPEVQIAKNDAPLQYDTNFQVDFITLVYLGRARGNNSPGIVFGPWYRTLQERLVLDRPVAARGVDCKDGRISRTFMNTTVTCLQSAGRMYVGDRAYSAFECAVLCLYLMYRTSNSVHEPQVSSFGNLIEHLPEYTETFVNYMTTHENKNSYQFCYDRLPRDQFHARGGRYDQGALTSHSVMDALIRLQVLPPAPGQFNPGVNDIIDRNHTAYVDKIQQAAAAYLERAQNVFLMEDQTLLRLTIDTITALLLLRRLLWNGNVYGDKLKNNFQLGLIVSEATGTPTNNVILRGATGFDGKFKSGNNNFQFLCERYIAPLYTLNRTTELTEMFPGLVALCLDAHTQLSRGSLGRTVIDISSGQYQDRLISLIALELEHRRQNVTSLPIAAVVSIHDSVMLQYERGLGMLMHQPRVRAALEESRRLAQFNVNSDYDLLYFVCLGVIPQFASTP
B4: capsid triplex protein 2 (TRX2; ORF41) (natural protein, UniProt P09291 1-316, looked up)
chain: MAMPFEIEVLLPGELSPAETSALQKCEGKIITFSTLRHRASLVDIALSSYYINGAPPDTLSLLEAYRMRFAAVITRVIPGKLLAHAIGVGTPTPGLFIQNTSPVDLCNGDYICLLPPVFGSADSIRLDSVGLEIVFPLTIPQTLMREIIAKVVARAVERTAAGAQILPHEVLRGADVICYNGRRYELETNLQHRDGSDAAIRTLVLNLMFSINEGCLLLLALIPTLLVQGAHDGYVNLLIQTANCVRETGQLINIPPMPRIQDGHRRFPIYETISSWISTSSRLGDTLGTRAILRVCVFDGPSTVHPGDRTAVIQV

What was measured:
Test in all cases: cryo-EM structure
[1] = molecular target: large tegument protein VP1/2 (ORF22) (Varicella-zoster virus (parental Oka strain, recombinant pOka-TK-RFP)) (UniProt P09278)
[2] = molecular target: the molecule itself
[3] = molecular target: the molecule itself; remark: listed apart in the source

| Molecule | stoichiometry N [2] | further results |
| --- | --- | --- |
| large tegument protein VP1/2 (ORF22), P09278 1-2763 |  | stoichiometry N [1]: 2 |
| B1 | 6 |  |
| B2 |  | stoichiometry N [3]: 12 |
| B3 | 2 |  |
| B4 | 2 |  |
